These are literature values, as cited in patent US20050255458A1, “Drug discovery assays based on the biology of chronic disease” (priority 2002, published 2005).

The test system of data set [1] is reverse transmigration of PBMC across HUVEC.
The subject of another data set is anagen hair follicles. Particulars: Philpott 1996.

B1: soluble TF: soluble tissue factor (protein, UniProt P13726 33-251, looked up)
extracellular domain: SGTTNTVAAYNLTWKSTNFKTILEWEPKPVNQVYTVQISTKSGDWKSKCFYTTDTECDLTDEIVKDVKQTYLARVFSYPAGNVESTGSAGEPLYENSPEFTPYLETNLGQPTIQSFEQVGTKVNVTVEDERTLVRRNNTFLSLRDVFGKDLIYTLYYWKSSSSGKKTAKTNTNEFLIDVDKGENYCFSVQAVIPSRTVNRKSTDSPVECMGQEKGEFRE
modifications: extracellular domain
notes: soluble tissue factor
As to B1, the “inhibition of reverse transendothelial migration” value in data set [1] is 69±2%.

B2: IL-1α: interleukin 1α cytokine (protein, UniProt P01583 113-271, looked up)
Interleukin-1 alpha: SAPFSFLSNVKYNFMRIIKYEFILNDALNQSIIRANDQYLTAAALHNLDEAVKFDMGAYKSSKDDAKITVILRISKTQLYVTAQDEDQPVLLKEMPEIPKTITGSETNLLFFWETHGTKNYFTSVAHPNLFIATKQDYWVCLAGGPPSITDFQILENQA
For B2, the scalp hair growth result with anagen hair follicles was “inhibition of scalp hair growth”.
